In US20210292393A1 (published 2021):

B1: antibody 514 (antibody, V domains shown)
VH: EVQLVQSGAEVKKPGATVKISCKVSGYTFTDYYMHWVQQAPGKGLEWMGLVDPEDGETIYAEKFQGRVTITADTSTDTAYMELSSLRSEDTAVYYCATDCKYDILTGHYSAGYYYYGMDVWGQGTTVTVSS
VL: DIQMTQSPSSLSASVGDRVTITCRASQGISNYLAWFQQKPGKAPKSLIYAASSLQSGVPSKFSGSGSGTDFTLTISSLQPEDFATYYCQQYNSYPFTFGGGTKVEIK
B2: antibody 533 (antibody, V domains shown)
VH: GVQLVESGGVVVQPGGSLRLSCAASGFSFDDYTMHWVRQAPGKGLEWVSLVSWDGGTTYYTDSVKGRFTISRDNSKNSLYLQMNSLRTEDTALYFCAKDSGRIVPAATFDYWGQGTLVTVSS
VL: DIQMTQSSSSLSASVGDRVTITCRASQDISNYLAWFQQKPGKAPKSLIYAASSLQSGVPSKFSGSGSGTDFTLTISSLQPEDFATYYCQQYYTYPLTFGGGTKVEIK
B3: antibody 340 (antibody, V domains shown)
VH: QVQLVQSGAEVKKPGASVKVSCKASGYTFTSYDINWVRQATGQGLEWMGWMNPNSGNTGYAQKFQGRVTMTRNTSISTAYMELSSLRSEDTAVYYCARGRYCTGGVCWGDWYFDLWGRGTLVTVSS
VL: QSVLTQPPSVSGAPGQRVTISCTGSSSNIGAGYDVHWYQQLPGTAPKFLIYGNSNRPSGVPDRFSGSKSGTSASLAITGLQAEDEADYYCQSYDSSLSGPVFGGGTKLTVL
B4: antibody 527 (antibody, V domains shown)
VH: QLQLQESGPGLVKPSETLSLTCTVSGGSISSSSYYWGWIRQPPGKGLEWIGSIYYSGSTYYNPSLKSRVTISVDTSKNQFSLKLSSVTAADTAMYYCASHVVVIASSYWCFDLWGRGTLVTVSS
VL: QSALTQPASVSGSPGQSITISCTGTSSDVGGYNYVSWYQQHPGKAPKLMIYDVSNRPSGVSNRFSGSKSGNTASLTISGLQAEDEADYYCSSYTSISTWVFGGGTKLTVL
B5: antibody 516 (antibody, V domains shown)
VH: QVELQQWGAGLLKPSETLSLTCAVYGGSFSGYYWSWIRQPPGKGLEWIGEINHSGSTNYNPSLKSRVTISIDTSKNQFSLKLSSVTAADTAVYYCARGTTVTTFFAPHWYFDLWGRGTLVTVSS
VL: QSALTQPASVSGSPGQSITISCTGTSSDVGGYNYVSWYQQHPGKAPKLMIYDVSNRPSGVSNRFSGSKSGNTASLTISGLQAEDEADYYCSSYTSSSTPYVFGTGTKVTVL
B6: antibody 543 (antibody, V domains shown)
VH: EVQLVESGGGLVQPGRSLRLSCAASGFTFHDYAMHWVRQAPGKGLEWVSGISWNSGSIGYADSVKGRFTISRDNAKNSLYLQMNSLRAEDTALYYCAKDTFGSSSWYRGDSYYYYGMDVWGQGTTVTVSS
VL: QSALTQPASVSGSPGQSITISCTGTSSDVGGYNYVSWYQQHPGKAPKLMIYEVSNRPSGVSNRFSGSKSGNTASLTISGLQAEDEADYYCSSYTSSSTQRYVVFGGGTKLTVL
B7: antibody 339 (antibody, V domains shown)
V domain 1: QITLKESGPTLVKPTETLTLTCSFSGFSLTRTGEAAGWIRQAPGRALEWVTVIFWDDDKRYSPSLQSRLTVTKDTSKNQVVLTMTNVARFDTATYFCWAMGGPGKEYFGQGTQVAVSS
V domain 2: QSVLTQPPSVSGAPGQRVTISCTGTSSSIGPYSDVHWYQHVSGKAPRLLIFGNSNRPSGVPDRFSGSKSGTSASLVIAGLQAEDEADYYCQSYDSSLGEIYVFGTGTTVTVL
B8: antibody 523 (antibody, V domains shown)
VH: EVQLVESGGVSVQPGGSLRLSCAASGFSFNTYDMHWVRQGTGKGLEWVSGIGTAGDTYYSDSVKGRCTISRDNAKNSLHLLVKSVRAADTAVYYCARGVGGIIDYWGQGTLVTVSS
VL: NFVLSQPHSVSESPGKTVTISCTGNSGSIATKYVQWFQQRPGSAPTTVIYEDNQRPSGVPDRFSGSSDSSSNSASLTISGLKTEDEAHYYCQSYHNRRWVFGGGTKLTVL
B9: antibody 344 (antibody, V domains shown)
VH: QVQLVESGGGVVQPGRSLRLSCAASGFTFSSYAMHWVRQAPGKGLEWMAVISYDGSNKYYADSVKGRFTISRDNSKNTLYLQMNSLRAEDTAVYFCAKGYSGSYYEPFDYWGQGTLVTVSS
VL: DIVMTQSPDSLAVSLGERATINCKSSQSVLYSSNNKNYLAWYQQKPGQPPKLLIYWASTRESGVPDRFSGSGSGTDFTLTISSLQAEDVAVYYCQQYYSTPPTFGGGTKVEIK
B10: antibody 548 (antibody, V domains shown)
VH: QVQLVESGGGVVQPGRSLRLSCAASGFTFSSYAMHWVRQAPGKGLEWVAVISYDGSNKYYADSVKGRFTISRDNSKNTLYLQMNNLRAEDTAVYYCAKSGSGSYLSAFDIWGQGTMVTVSS
VL: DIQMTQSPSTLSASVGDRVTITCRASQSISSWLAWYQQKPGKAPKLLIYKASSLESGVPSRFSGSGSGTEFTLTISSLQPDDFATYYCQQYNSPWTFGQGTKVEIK
B11: antibody 345 (antibody, V domains shown)
VH: QVQLQESGPGLVKPSQTLSLTCTVSGGSISSGDYYWSWIRQPPGKGLEWIGYIYYSGSTYYNPSLKSRVTISVDTSKNQFSLKLSSVTAADTAVYYCARVGMVDNWNFEGNWFDPWGQGTLVTVSS
VL: QSALTQPRSVSGSPGQSVTISCTGTSSDVGGYNYVSWYQQHPGKAPKLMIYDVSKRPSGVPDRFSGSKSGNTASLTISGLQAEDEADYYCCSYAGSVVFGGGTKLTVL
B12: antibody 365 (antibody, V domains shown)
VH: QVQLVESGGGVVQPGRSLRLSCAASGFNLSSYAMHWVRQASGKGLEWVSLISYDGSIKYYTDSVKGRFTVSGDNSKNTLFLQMNSLRPDDSALYYCVRGGVSGPNSFDMWGQGTTVTVSS
VL: DVVMTQSPLSLPVTLGQPASISCRSSQSLVYSDGNTYVNWFQQRPGQSPRRLIYKVSIRASGVPDRFSGSGSGTDFALKISRVEAEDVGVYYCMQGTHWPVTFGQGTKVEIK
B13: antibody 517 (antibody, V domains shown)
VH: QVQLVESGGGVVQPGRSLRLSCAASGFNLSNYAMHWVRQASGKGLEWVSLISYDGSIKYYTDSVKGRFTVSGDNSKNTLFLQMNSLRADDSALYYCVRGGVSGPNSFDMWGQGTTVTVSS
VL: DVVMTQSPLSLPVTLGQPASISCRSSQSLVYSDGNTYVNWFQQRPGQSPRRLIYQVSIRASGVPDRFSGSGSGTDFALKISRVEAEDVGVYYCMQGTHWPVTFGQGTKVEIK
B14: antibody 547 (antibody, V domains shown)
VH: QVHLVESGGGVVQPGRSLRLSCAASGFALSSYAMHWVRQPPGKGLEWVALISYDGSVKKYADSVKGRITVSGDNSRNTLHLQINSLRADDTAVYYCVRGGVSGPNSFDLWGHGTMVTVSS
VL: DVVLTQSPLSLPVTLGQPASISCRSSQSLEYSVGNTYVNWFQQRPGQSPRRLIYKVSNRDSGVPDRFSGSGSGTDFTLQISRVEADDVGIYYCMQGTHWPVTFGQGTKVEIK
B15: antibody 537 (antibody, V domains shown)
VH: QVQLQQWGAGLLKPSETLSLTCAVYGGSFSGYYWSWIRQPPGKGLEWIGEINHSGSTNYNPSLKSRVTISVDTSKNQFSLKLSSVTAADTAVYYCARGLYYDMGGGFDYWGQGTLVTVSS
VL: not shown
B16: antibody 541 (antibody, V domains shown)
VH: QVQLVQSGAEVKKPGASVKVSCKASGYTFTSYYVHWVRQAPGQSLEWMGVISPSTGSTTYAQNFQGRVTMTRDTSTTTVYMELSSLRSEDTAVYYCARDDYYDSTRYFDLWGRGTLVTVSS
VL: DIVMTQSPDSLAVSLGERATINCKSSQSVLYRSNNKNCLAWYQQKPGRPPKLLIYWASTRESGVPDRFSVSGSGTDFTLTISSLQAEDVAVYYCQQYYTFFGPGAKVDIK
B17: antibody 536 (antibody, V domains shown)
VH: QVQLVESGGGVVQPGRSLRLSCAASGFTFSSYVMHWVRQAPGKGLEWVALISYDGSNKYYADSVKGRFTISRDNSKNTLYLQMNSLRAEDTAVYYCARGGHIRVGRYFDWLISYFDYWGQGTLVTVSS
VL: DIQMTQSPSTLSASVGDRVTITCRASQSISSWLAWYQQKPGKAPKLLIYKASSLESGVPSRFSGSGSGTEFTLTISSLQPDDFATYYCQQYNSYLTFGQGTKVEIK
B18: antibody 366 (antibody, V domains shown)
VH: QVQLVESGGGVVQPGRSLRLSCAASGFTFSSYAMHWVRQAPGKGLEWVAVISYDGSNKYYADSVKGRFTISRDNSKNTLYLQMNSLRAEDTAVYYCARGLVGYNWFDPWGQGTLVTVSS
VL: DIQMTQSPSSVSASVGDRVTITCRASQGISSWLAWYQQKPGKAPKLLIYAASSLQSGVPSRFSGSGSGTDFTLTISSLQPEDFATYYCQQANSFTFGPGTKVDIK
B19: antibody 546 (antibody, V domains shown)
VH: QVQLVESGGGVVQPGRSLRLSCAASGFTFSSYGMHWVRQAPGKGLEWVAVIWYDGSNKYYADSVKGRFTISRDNSKNTLYLQMNSLRAEDTAVYYCARNCGGDCVAGDGFDYWGQGTLVTVSS
VL: DIQMTQSPSSLSASVGDRVTITCRASQSISSYLNWYQQKPGKAPNLLIYAASSLQSGVPSRFSGSGSGTDFTLTISSLQPEDFATYYCQQSYSALTWTFGQGTKVEIK
B20: antibody 348 (antibody, V domains shown)
VH: QVQLVQSGSELKKPGASVKVSCKASGYTFTSYAMNWVRQAPGQGLEWMGWINTNTGNPTYAQGFTGRFVFSLDTSVSTAYLQISSLKAEDTAVYYCARDHELPNTSSWFGHFEYWGQGTLVTVSS
VL: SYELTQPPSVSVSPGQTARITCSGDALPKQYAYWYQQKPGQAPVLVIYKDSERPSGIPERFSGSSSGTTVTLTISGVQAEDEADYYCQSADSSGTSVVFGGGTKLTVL
B21: antibody 545 (antibody, V domains shown)
VH: QVQLVQSGSELKKPGASVKVSCKASGYTFTSYAMNWVRQAPGQGLEWMGWINTNTGNPTYAQGFTGRFVFSLDTSVSTAYLQISVLKAEDTGVYYCARDHELPNSSSWFGHFEYWGQGTLVTVSS
VL: SYELTQPPSVSVSPGQTARITCSGDALPKQYAYWYQQKAGQAPVLVIYKDSERRSGIPERFSGSSSGTTVTLTISGVQAEDEADYYCQSADSSGTSVVFGGGTKLTVL
B22: antibody 522 (antibody, V domains shown)
VH: EVQLVESGGGLVQPGGSLRLSCAASGFNFSSYSMNWVRQAPGKGLEWVSYISSSSSTIYYADSVKGRFTISRDNAKNSLYLQMNSLRDEDTAVYYCARGPEWDIVVVQAENWFDPWGQGTLVTVSS
VL: SYELTQPPSVSVSPGQTARITCSGDALPKQYVYWYQQKPGQAPVLVIYKDSERPSGIPERFSGSSSGTTVTLTISGVQAEDEADYYCQSADSSGTYRGVFGGGTKLTVL
B23: antibody 363 (antibody, V domains shown)
VH: EVQLLESGGGLVQPGGSLRLSCAASGFTFSTYAMSWVRQAPGKGLEWVSAISGSGGSTYYADSVKGRFTISRDNSKNTLYLQMNSLRAEDTAVYYCASGYSPDYWGQGTLVTVSS
VL: not shown

How the values were obtained:
[1] = target: SARS-CoV-2 full length spike protein, V483A mutant (SARS-CoV-2, UniProt P0DTC2 14-1273)
[2] = target: SARS-CoV-2 full length spike protein, V483A mutant, expressed on the surface of CHO cells (SARS-CoV-2, UniProt P0DTC2 14-1273)

| Binder | median fold over isotype [1] [fold over isotype] | median fluorescence intensity, fold over isotype control [2] [fold over isotype] |
| --- | --- | --- |
| B1 | 1.39 | – |
| B2 | 4.86 | – |
| B3 | – | 26.3 |
| B4 | 7.97 | – |
| B5 | 2.61 | – |
| B6 | 8.92 | – |
| B7 | – | 18.2 |
| B8 | 3.76 | – |
| B9 | – | 8.15 |
| B10 | 10.1 | – |
| B11 | – | 9.41 |
| B12 | – | 11.2 |
| B13 | 11.5 | – |
| B14 | 11.4 | – |
| B15 | 3.74 | – |
| B16 | 1.6 | – |
| B17 | 2.59 | – |
| B18 | – | 9.74 |
| B19 | 18.9 | – |
| B20 | – | 14.2 |
| B21 | 14.3 | – |
| B22 | 6.75 | – |
| B23 | – | 15.1 |
